Consider two molecules from publication PMC10951424, “Fibroblast-specific PRMT5 deficiency suppresses cardiac fibrosis and left ventricular dysfunction in male mice” (Nature Communications, 2024).

For the assay, the target named is T1, His-tag fusion human PRMT5 protein (human, UniProt O14744 1-637).
T1 construct: Protein arginine methyltransferase 5 (PRMT5), human; also called His-tagged PRMT5; his-tagged PRMT5; source: E. coli BL21DE3, recombinant; not shown: His-tag, N-terminal, kept
Kind of assay: pull-down; GST fusion proteins immobilized on glutathione-Sepharose 4B beads, mixed with His-tag fusion human PRMT5; 4 °C, 2 h; beads washed four times; western blot with anti-His-tag mAb. Conditions: both partners purified. (In general: Immunoblotting shows a protein as a band on a membrane.)

T1 sequence (O14744 whole entry, the tested form may be a part): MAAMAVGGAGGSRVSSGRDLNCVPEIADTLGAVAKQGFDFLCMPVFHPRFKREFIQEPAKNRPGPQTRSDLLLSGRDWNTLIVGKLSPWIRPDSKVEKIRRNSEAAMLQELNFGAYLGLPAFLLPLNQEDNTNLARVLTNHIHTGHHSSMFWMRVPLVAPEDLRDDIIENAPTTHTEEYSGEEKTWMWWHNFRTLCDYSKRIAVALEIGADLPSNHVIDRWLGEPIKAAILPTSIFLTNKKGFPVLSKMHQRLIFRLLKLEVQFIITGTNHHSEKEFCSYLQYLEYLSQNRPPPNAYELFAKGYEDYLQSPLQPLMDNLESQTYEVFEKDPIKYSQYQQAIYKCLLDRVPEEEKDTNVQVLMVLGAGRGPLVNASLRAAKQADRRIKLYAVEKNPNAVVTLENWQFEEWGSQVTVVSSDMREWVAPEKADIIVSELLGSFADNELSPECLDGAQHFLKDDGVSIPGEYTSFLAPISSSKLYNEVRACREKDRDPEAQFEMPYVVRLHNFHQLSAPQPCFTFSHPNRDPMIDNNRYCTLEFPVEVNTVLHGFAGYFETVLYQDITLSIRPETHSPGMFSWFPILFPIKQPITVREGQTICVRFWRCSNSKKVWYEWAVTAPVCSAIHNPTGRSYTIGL

B1: recombinant full-length GST-Smad3 (natural protein, human, UniProt P84022 1-425, looked up)
chain: MSSILPFTPPIVKRLLGWKKGEQNGQEEKWCEKAVKSLVKKLKKTGQLDELEKAITTQNVNTKCITIPRSLDGRLQVSHRKGLPHVIYCRLWRWPDLHSHHELRAMELCEFAFNMKKDEVCVNPYHYQRVETPVLPPVLVPRHTEIPAEFPPLDDYSHSIPENTNFPAGIEPQSNIPETPPPGYLSEDGETSDHQMNHSMDAGSPNLSPNPMSPAHNNLDLQPVTYCEPAFWCSISYYELNQRVGETFHASQPSMTVDGFTDPSNSERFCLGLLSNVNRNAAVELTRRHIGRGVRLYYIGGEVFAECLSDSAIFVQSPNCNQRYGWHPATVCKIPPGCNLKIFNNQEFAALLAQSVNQGFEAVYQLTRMCTIRMSFVKGWGAEYRRQTVTSTPCWIELHLNGPLQWLDKVLTQMGSPSIRCSSVS
notes: Smad3, full length; the only Smad3 cDNA named is the pCMV Flag hSmad3 vector (human); The methods tell the cloning into pGEX6P1 only for the deletion mutants; the full-length GST construct is not described; also called GST-tagged Smad3; source: E. coli BL21DE3, recombinant, immobilized on glutathione-Sepharose 4B beads
B1: the binding result is given as “binds”.

B2: GST-Smad3 deletion mutant aa 225-425 (domain or fragment)
chain: not shown
notes: PCR product cloned into pGEX6P1 (BamHI, XhoI); cDNA from the pCMV Flag hSmad3 vector (human); source: E. coli BL21DE3, recombinant, immobilized on glutathione-Sepharose 4B beads
Take B2: the binding result is recorded as “binds”.
